Measured values reported in publication PMC9765892, “Molecular identification and functional characterization of two glycosyltransferases genes from Fallopia multiflora” (Frontiers in Plant Science, 2022).
One block for each molecule: values may come before it.

Columns and labels:
FmUGT1 = target: T1, FmUGT1 (Pleuropterus multiflorus, UniProt A0A9E7V1Q5); experiment: HPLC glycosylation assay; Lineweaver-Burk plot; type: biochemical; conditions: 0.8 mM UDP-glucose; 0.05 M Tris-HCl; 5-480 μM substrate; pH and temperature of kinetics not stated; substrate assigned from methods
T1 construct: gene UGT; full length, 533 residues (ORF 1602 bp); pET-32a (BamH I) in E. coli Transetta (DE3), Ni-NTA purified
Source text: HPLC glycosylation assay; Lineweaver-Burk plot on FmUGT1 | using THSG and emodin as the substrate for FmUGT1 and FmUGT2, respectively

[1] = substrate: Cc1cc(O)c2c(c1)C(=O)c1cc(O)cc(O)c1C2=O; experiment: HPLC glycosylation assay; Lineweaver-Burk plot; type: biochemical, Pleuropterus multiflorus; conditions: 0.8 mM UDP-glucose; 0.05 M Tris-HCl; 5-480 μM substrate; pH and temperature of kinetics not stated; substrate assigned from methods
Source text: HPLC glycosylation assay; Lineweaver-Burk plot on FmUGT2 | using THSG and emodin as the substrate for FmUGT1 and FmUGT2, respectively

T1 sequence (A0A9E7V1Q5 entry or part of it): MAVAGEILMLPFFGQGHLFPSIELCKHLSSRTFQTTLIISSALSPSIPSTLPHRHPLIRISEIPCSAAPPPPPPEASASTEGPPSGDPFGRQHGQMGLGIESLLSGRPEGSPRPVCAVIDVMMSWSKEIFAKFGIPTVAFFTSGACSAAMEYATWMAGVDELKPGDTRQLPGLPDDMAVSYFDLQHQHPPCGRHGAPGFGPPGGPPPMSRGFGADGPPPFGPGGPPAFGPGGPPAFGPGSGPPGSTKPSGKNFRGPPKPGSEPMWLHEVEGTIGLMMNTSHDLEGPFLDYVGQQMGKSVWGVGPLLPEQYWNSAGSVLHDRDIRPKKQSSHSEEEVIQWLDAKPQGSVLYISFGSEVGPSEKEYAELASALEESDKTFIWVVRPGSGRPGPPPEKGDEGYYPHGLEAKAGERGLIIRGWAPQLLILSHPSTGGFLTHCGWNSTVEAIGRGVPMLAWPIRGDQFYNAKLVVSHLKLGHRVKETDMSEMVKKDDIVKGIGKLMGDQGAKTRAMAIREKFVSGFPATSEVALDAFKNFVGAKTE

- Km (FmUGT1): 236 µM
Molecule: OC[C@H]1O[C@@H](Oc2c(O)cc(O)cc2/C=C/c2ccc(O)cc2)[C@H](O)[C@@H](O)[C@@H]1O [compound 1, THSG]

B1: FmUGT2 (Pleuropterus multiflorus) (protein)
chain: MTISKTANLVLIPAPGMGHLAPAIELAKHLVARDPRLSITVLLIKGFVPEETVESYILSLKSNSSLLNQGIGFIDIPQIDLNSARPSFLTHMNAYQPKVKEAIEGLRSAGPLPVAGLLVDMFCTSTIDVATELGLPSYVFFTSGAGLLRLFFHLHGLGVDVAQEYDVVRSPDTLLEIPGFRNPVPVKVLPGRFLSKDGQSSTFLRLADKFRQAKGILVNTCMEIDRDLIQSMSQQDIEIPPIYPVGPILNLPTEDDHGHDDDESSGKDPITRWLDDQPPRSVVFLCFGSRGTFNDTQIKEIAVGLERSGQRFLWSLRQRPGETGVPLELDDPSKVLPEGFFERTAEKGRVIGWAPQARVLAHKAVGAFVSHCGWNSTLESFWYGVPIAAWPIYAEQQLNAFVLVKELGLATEIRIDYCQDFGINMVVKAEEVEDGINKAMKETEVKKKVKEMCDKARKALEEGGSSYESIGRFIEVVFKNLP
notes: full length, 482 residues (ORF 1449 bp); pET-32a (BamH I) in E. coli Transetta (DE3), Ni-NTA purified
- Km [1]: 185 µM
- kcat [1]: 0.1413 s⁻¹
